B1: myelin basic protein (purified MBP) (other, human, UniProt P02686-5 2-171, looked up)
chain: ASQKRPSQRHGSKYLATASTMDHARHGFLPRHRDTGILDSIGRFFGGDRGAPKRGSGKDSHHPARTAHYGSLPQKSHGRTQDENPVVHFFKNIVTPRTPPPSQGKGRGLSLSRFSWGAEGQRPGFGYGGRASDYKSAHKGFKGVDAQGTLSKIFKLGGRDSRSGSPMARR
notes: also called intact MBP

Columns and labels:
[1] = target: B1; assay: dot blot: peptide immobilised on nitrocellulose, incubated with MBP, detected with mAb 384
Description: Dot Blot Analysis. […] Insulin (Sigma) was resuspended to 2 mg/ml in water at pH 2.0 and diluted to 2 μg/ml in Tris-buffered saline. 1 μg of each was immobilized onto Hybond ECL nitrocellulose membranes using a Bio-Dot microfiltration apparatus (Bio-Rad) according to the manufacturer's instructions. Each membrane was removed from the apparatus following immobilization and blocked overnight in 5% BSA and PBS at 4° C. […] The membrane was washed 3×10 min with 5% BSA, PBS, and 0.05% Tween 20 and incubated with mAb 384 (1:2000 dilution) for 1 h at room temperature. The membrane was next washed […] with PBS and 0.05% Tween 20 and incubated with horseradish peroxidase-conjugated sheep antimouse IgG (1:2000 dilution) for 1 h at room temperature. Detection and quantitation were performed as described above.

wild-type Aβ42 peptide = target: T1, wild-type Aβ42 peptide (UniProt P05067 672-713); assay: SPR, Aβ peptide immobilised, MBP as analyte
T1 construct: domain: Aβ42; Free in co-immunoprecipitation; also called Aβ42WT
T1 sequence (P05067 672-713 limits assumed): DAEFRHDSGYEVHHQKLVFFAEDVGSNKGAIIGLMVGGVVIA

Binder	binding result [1]	Kd (wild-type Aβ42 peptide)
PEERHLSKMQQNGYENPTYK (also called AβPP-(744-763)) [APP 744-763]	no binding (tested: 1 g/ml MBP (as printed in paragraph 99))	–
RGRKQCKTHPHFVIPYRCLV [APP 100-119]	no binding (tested: 1 g/ml MBP (as printed in paragraph 99))	–
B1	–	43 nM
